Data on five molecules can be found in patent EP4759829A1 (The University of Tokyo, dated 2025).

Values joined by “and” are separate entries in the source; they are usually repeats but may differ in a detail not shown here. Identical values can stand only once.

By EC50 is commonly meant the midpoint of the concentration-response curve. Read a low EC50 as higher potency in that assay. What is called Kd is the free concentration of one partner at which half of the binding sites on the other are occupied at equilibrium, for simple one-to-one binding.

Assay [1] has as its target T1, human HVEM on cells (HEK293T cells expressing HVEM; Mesenchymal subtype GBM cells) (human, UniProt Q92956 39-283).
T1 construct: whole, on cells; also called TNFRSF14; HEK293T-HVEM
T1 sequence (looked up): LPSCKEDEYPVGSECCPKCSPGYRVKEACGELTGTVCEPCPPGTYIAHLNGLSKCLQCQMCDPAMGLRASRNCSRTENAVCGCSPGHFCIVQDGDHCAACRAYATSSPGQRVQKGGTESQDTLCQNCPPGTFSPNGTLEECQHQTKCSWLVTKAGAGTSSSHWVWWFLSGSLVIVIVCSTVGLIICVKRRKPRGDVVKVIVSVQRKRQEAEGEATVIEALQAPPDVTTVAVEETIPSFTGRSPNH
In words: cell ELISA on fixed HEK293T cells expressing HVEM, anti-His-HRP detection. In general terms: In an ELISA, binding on a coated surface is turned into a signal by an enzyme label.

The target in assay [2] is T2, human HVEM extracellular domain recombinant protein (Sino Biological Japan Inc. 10334-H08H) (human, UniProt Q92956 39-202).
T2 construct: extracellular domain; Bought protein
T2 sequence (looked up): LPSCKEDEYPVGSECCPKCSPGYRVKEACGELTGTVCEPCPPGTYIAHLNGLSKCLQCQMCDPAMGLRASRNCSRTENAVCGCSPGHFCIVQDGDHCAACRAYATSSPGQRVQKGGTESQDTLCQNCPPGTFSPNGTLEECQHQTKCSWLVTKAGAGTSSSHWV
The experiment in a line: SPR (BIAcore T200), biotinylated VHH-3-Avitag on SA chip, HVEM extracellular domain as analyte.

Assay [3] has as its target T1, human HVEM on cells (HEK293T cells …). The experiment in a line: cell-based or functional assay.
Assay [4] addresses T2, human HVEM extracellular domain …. In words: SPR (BIAcore T200), antibody captured by anti-human IgG on CM5 chip, HVEM extracellular domain as analyte.

B1: alpaca anti-human HVEM antibody (VHH-3), 6×His-tagged (VHH)
VHH: QVQLVESGGGSVQPGGSLRLSCAASGSIGSIHRWDWYRLCPGKQREWVATLNSEGGPTYADSVEGRFTISRDNAKNMVYLQMNSLKPEDTAVYRCSARTVPFEYWGRGTQVTVSS
notes: also called 6×His-tagged VHH-3 antibody; not shown: 6×His tag
Regarding B1, the 50% effective concentration (EC50) in assay [1] was 1.94 nM. This lies in the single-digit nanomolar range.

B2: alpaca anti-human HVEM antibody (VHH-3) tagged C-terminally with biotinylated Avitag (VHH)
VHH: QVQLVESGGGSVQPGGSLRLSCAASGSIGSIHRWDWYRLCPGKQREWVATLNSEGGPTYADSVEGRFTISRDNAKNMVYLQMNSLKPEDTAVYRCSARTVPFEYWGRGTQVTVSS
modifications: biotinylated Avitag at the C-terminus
notes: not shown: C-terminal Avitag (biotinylated)
On to B2, for which the dissociation constant (Kd) in assay [2] was 19 nM.

B3: humanized anti-human HVEM antibody (HVR80) conjugated with monomethyl auristatin E (MMAE) (other)
chain: EVQLVESGGGLVQPGGSLRLSCAASGSIGSIHRWDWYRQAPGKQREWVATLNSEGGPTYADSVEGRFTISRDNSKNTLYLQMNSLRPEDTAVYRCAARTVPFEYWGQGTLVTVSSGPPCPPCPAPEFLGGPSVFLFPPKPKDTLMISRTPEVTCVVVDVSQEDPEVQFNWYVDGVEVHNAKTKPREEQFNSTYRVVSVLTVLHQDWLNGKEYKCKVSNKGLPSSIEKTISKAKGQPREPQVYTLPPSQEEMTKNQVSLTCLVKGFYPSDIAVEWESNGQPENNYKTTPPVLDSDGSFFLYSRLTVDKSRWQEGNVFSCSVMHEALHNHYTQKSLSLSLGK
modifications: conjugated with monomethyl auristatin E (MMAE) using Glyclick ADC MMAE (Genovis AB); site not stated
For the molecule B3, in assay [3], the “IC50 of cell viability of HEK293T-HVEM cells, 3 days” value is 70 ng/ml and 0.9 nM.

B4: humanized anti-human HVEM antibody (HVR80) conjugated with PNU (other)
chain: EVQLVESGGGLVQPGGSLRLSCAASGSIGSIHRWDWYRQAPGKQREWVATLNSEGGPTYADSVEGRFTISRDNSKNTLYLQMNSLRPEDTAVYRCAARTVPFEYWGQGTLVTVSSGPPCPPCPAPEFLGGPSVFLFPPKPKDTLMISRTPEVTCVVVDVSQEDPEVQFNWYVDGVEVHNAKTKPREEQFNSTYRVVSVLTVLHQDWLNGKEYKCKVSNKGLPSSIEKTISKAKGQPREPQVYTLPPSQEEMTKNQVSLTCLVKGFYPSDIAVEWESNGQPENNYKTTPPVLDSDGSFFLYSRLTVDKSRWQEGNVFSCSVMHEALHNHYTQKSLSLSLGK
modifications: conjugated with PNU using Glyclick ADC PNU (Genovis AB); site not stated
Turning to B4, the “IC50 of cell viability of HEK293T-HVEM cells, 3 days” value in assay [3] was 30 ng/ml and 0.4 nM.

B5: humanized anti-human HVEM antibody (HVR80) (Fc fusion)
chain: EVQLVESGGGLVQPGGSLRLSCAASGSIGSIHRWDWYRQAPGKQREWVATLNSEGGPTYADSVEGRFTISRDNSKNTLYLQMNSLRPEDTAVYRCAARTVPFEYWGQGTLVTVSSGPPCPPCPAPEFLGGPSVFLFPPKPKDTLMISRTPEVTCVVVDVSQEDPEVQFNWYVDGVEVHNAKTKPREEQFNSTYRVVSVLTVLHQDWLNGKEYKCKVSNKGLPSSIEKTISKAKGQPREPQVYTLPPSQEEMTKNQVSLTCLVKGFYPSDIAVEWESNGQPENNYKTTPPVLDSDGSFFLYSRLTVDKSRWQEGNVFSCSVMHEALHNHYTQKSLSLSLGK
notes: Printed molecular weight about 77,000
On to B5, for which the Kd in assay [4] is 59 nM.
